Laboratory results taken from paper PMC9284731.

Columns and labels:
[1] = system: RBP10 fragment with only 10 residues C-terminal to the RRM (Trypanosoma brucei); assay: EMSA; settings: binding buffer for gel shifts not in material (only protein buffers: elution 50 mM NaH2PO4, 300 mM NaCl, 250 mM imidazole, pH 8.0); sometimes dialyzed to 10 mM …; scale: affinity relative to P1
[2] = system: RBP10 fragment with no residues C-terminal to the RRM (Trypanosoma brucei); assay: EMSA; settings: binding buffer for gel shifts not in material (only protein buffers: elution 50 mM NaH2PO4, 300 mM NaCl, 250 mM imidazole, pH 8.0); sometimes dialyzed to 10 mM …; scale: affinity relative to P1

| Substance | binding signal [1] | binding signal [2] |
| --- | --- | --- |
| probe with two copies of UA(U)6 | < 0.1 | < 0.1 |
| probe with two copies of UACUCUCU (mutant) | < 0.1 | < 0.1 |
